T1: PYL3 with HAB1 (Arabidopsis thaliana, UniProt Q9SSM7, F188A)
T1 construct: 6xHis-tagged PYL3 plus HAB1 (169-511), GST tag removed by TEV protease; both from E. coli; with Protein phosphatase 2C 16
T1 sequence (Q9SSM7 1-209 F188A): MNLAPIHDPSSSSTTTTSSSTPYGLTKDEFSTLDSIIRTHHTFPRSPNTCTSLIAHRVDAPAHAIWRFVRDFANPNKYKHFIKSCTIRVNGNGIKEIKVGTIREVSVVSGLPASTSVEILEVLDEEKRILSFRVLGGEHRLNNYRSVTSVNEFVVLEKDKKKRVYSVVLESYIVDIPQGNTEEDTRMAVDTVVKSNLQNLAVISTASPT
T1 sequence (Q9CAJ0 169-511 partner): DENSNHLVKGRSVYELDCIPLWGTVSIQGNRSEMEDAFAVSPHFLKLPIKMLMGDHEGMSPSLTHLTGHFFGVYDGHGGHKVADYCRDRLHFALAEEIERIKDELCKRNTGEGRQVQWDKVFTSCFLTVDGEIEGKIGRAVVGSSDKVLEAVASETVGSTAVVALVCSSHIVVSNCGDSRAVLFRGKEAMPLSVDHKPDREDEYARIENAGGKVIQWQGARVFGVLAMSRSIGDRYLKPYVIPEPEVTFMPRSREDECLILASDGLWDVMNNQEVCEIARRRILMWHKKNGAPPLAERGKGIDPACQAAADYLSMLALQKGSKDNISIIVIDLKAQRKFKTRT

T2: PYL3 with HAB1 (Arabidopsis thaliana, UniProt Q9SSM7)
T2 construct: 6xHis-tagged PYL3 plus HAB1 (169-511), GST tag removed by TEV protease; both from E. coli; with Protein phosphatase 2C 16
T2 sequence (Q9SSM7 1-209): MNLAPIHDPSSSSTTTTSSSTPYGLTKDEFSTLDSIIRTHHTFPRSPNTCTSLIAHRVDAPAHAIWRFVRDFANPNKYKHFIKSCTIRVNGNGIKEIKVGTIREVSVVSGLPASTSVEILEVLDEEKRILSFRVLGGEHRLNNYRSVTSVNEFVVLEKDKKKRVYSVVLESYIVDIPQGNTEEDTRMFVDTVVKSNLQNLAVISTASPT
T2 sequence (Q9CAJ0 169-511 partner): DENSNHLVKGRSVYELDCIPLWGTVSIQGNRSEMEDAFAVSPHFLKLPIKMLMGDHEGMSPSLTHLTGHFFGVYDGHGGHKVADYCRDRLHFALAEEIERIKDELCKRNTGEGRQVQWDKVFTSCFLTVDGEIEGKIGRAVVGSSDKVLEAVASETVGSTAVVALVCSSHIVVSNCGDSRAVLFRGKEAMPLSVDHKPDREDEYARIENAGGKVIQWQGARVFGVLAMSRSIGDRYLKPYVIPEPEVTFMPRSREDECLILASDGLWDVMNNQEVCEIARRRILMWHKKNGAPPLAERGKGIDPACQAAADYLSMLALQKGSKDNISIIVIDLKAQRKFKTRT

T3: PYL3 with HAB1 (Arabidopsis thaliana, UniProt Q9SSM7, F81A)
T3 construct: 6xHis-tagged PYL3 plus HAB1 (169-511), GST tag removed by TEV protease; both from E. coli; with Protein phosphatase 2C 16
T3 sequence (Q9SSM7 1-209 F81A): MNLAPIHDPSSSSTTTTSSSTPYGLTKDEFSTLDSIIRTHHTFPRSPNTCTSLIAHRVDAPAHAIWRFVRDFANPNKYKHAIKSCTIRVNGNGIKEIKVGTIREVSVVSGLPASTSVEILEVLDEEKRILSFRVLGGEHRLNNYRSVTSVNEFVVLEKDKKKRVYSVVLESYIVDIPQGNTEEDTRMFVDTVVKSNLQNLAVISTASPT
T3 sequence (Q9CAJ0 169-511 partner): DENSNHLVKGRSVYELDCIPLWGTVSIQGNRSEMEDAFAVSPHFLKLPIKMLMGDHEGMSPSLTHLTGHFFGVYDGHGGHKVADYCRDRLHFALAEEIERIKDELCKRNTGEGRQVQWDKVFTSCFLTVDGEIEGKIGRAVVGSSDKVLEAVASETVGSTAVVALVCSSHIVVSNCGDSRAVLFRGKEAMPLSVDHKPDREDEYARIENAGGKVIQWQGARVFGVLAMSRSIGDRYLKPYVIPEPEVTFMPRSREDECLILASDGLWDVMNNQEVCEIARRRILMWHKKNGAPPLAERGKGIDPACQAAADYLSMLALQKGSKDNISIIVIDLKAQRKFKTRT


Experiments:
PYL3 with HAB1 [1] = molecular target: T1, PYL3 with HAB1; assay: HAB1 phosphatase assay (Promega V2460), phosphopeptide substrate; format: biochemical; settings: read-out: % inhibition of HAB1 with 5 μM ABA
PYL3 with HAB1 [2] = molecular target: T2, PYL3 with HAB1; assay: as above; format: biochemical; settings: HAB1 0.5 μM, PYL3 1 μM, ABA 5 μM, pH 7.5, 30 °C; ABA promotes inhibition of HAB1 by PYL3
PYL3 with HAB1 [3] = molecular target: T3, PYL3 with HAB1; assay: as above; format: biochemical; settings: read-out: % inhibition of HAB1 with 5 μM ABA
[4] = molecular target: AD-HAB1 (169-511) (Arabidopsis thaliana) (UniProt Q9CAJ0)
[5] = molecular target: AD-HAB1 (169-511) (Arabidopsis thaliana) (UniProt Q9CAJ0); remark: listed apart in the source
[6] = molecular target: AD-HAB1 (169-511) (Arabidopsis thaliana) (UniProt Q9CAJ0); remark: listed apart in the source
[7] = molecular target: the molecule itself; assay: cross-linking; EGS cross-linking gel assay: 20 μg 6x His-tagged PYL3 WT or mutant in PBS (pH 7.5, 150 mM NaCl), 100 μL, increasing EGS, 10 min at room temperature, stopped with Tris-glycine; 10% SDS/PAGE, Coomassie; self-association (dimer)

AD-HAB1 (169-511) (Arabidopsis thaliana), sequence (Q9CAJ0 whole entry): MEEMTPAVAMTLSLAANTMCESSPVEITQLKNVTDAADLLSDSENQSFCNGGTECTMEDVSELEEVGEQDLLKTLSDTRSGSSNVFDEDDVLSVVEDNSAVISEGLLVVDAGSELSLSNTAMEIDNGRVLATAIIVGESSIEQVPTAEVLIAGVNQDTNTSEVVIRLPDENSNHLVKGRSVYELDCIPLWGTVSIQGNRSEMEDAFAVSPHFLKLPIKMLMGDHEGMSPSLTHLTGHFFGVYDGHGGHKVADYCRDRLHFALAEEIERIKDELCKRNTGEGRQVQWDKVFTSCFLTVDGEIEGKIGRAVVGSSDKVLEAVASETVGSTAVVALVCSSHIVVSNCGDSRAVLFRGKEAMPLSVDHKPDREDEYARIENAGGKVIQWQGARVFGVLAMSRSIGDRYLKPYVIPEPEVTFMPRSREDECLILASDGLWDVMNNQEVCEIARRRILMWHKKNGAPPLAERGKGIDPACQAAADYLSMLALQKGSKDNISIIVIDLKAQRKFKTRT

| Molecule | inhibition of HAB1 (0.5 μM) phosphatase activity by 1 μM PYL3 mutant, without ABA [4] [%] | also measured |
| --- | --- | --- |
| CC1=CC(=O)CC(C)(C)[C@@]1(O)/C=C/C(C)=C\C(=O)O [ABA] | – | inhibition at 5 µM (PYL3 with HAB1 [1]): ~70%; HAB1 phosphatase assay (Promega V2460), phosphopeptide substrate (PYL3 with HAB1 [2]): PYL3 could almost completely inhibit the activity of HAB1 in the presence of ABA; inhibition at 5 µM (PYL3 with HAB1 [3]): ~70% |
| PYL3 V108K V107L (receptor) MNLAPIHDPSSSSTTTTSSSTPYGLTKDEFSTLDSIIRTHHTFPRSPNTCTSLIAHRVDAPAHAIWRFVRDFANPNKYKHFIKSCTIRVNGNGIKEIKVGTIREVSLKSGLPASTSVEILEVLDEEKRILSFRVLGGEHRLNNYRSVTSVNEFVVLEKDKKKRVYSVVLESYIVDIPQGNTEEDTRMFVDTVVKSNLQNLAVISTASPT | 25 | inhibition of HAB1 phosphatase activity by the PYL3 mutant, without ABA (as retold in the discussion, Fig. 3) [5]: 20% |
| PYL3 F81A (receptor) MNLAPIHDPSSSSTTTTSSSTPYGLTKDEFSTLDSIIRTHHTFPRSPNTCTSLIAHRVDAPAHAIWRFVRDFANPNKYKHAIKSCTIRVNGNGIKEIKVGTIREVSVVSGLPASTSVEILEVLDEEKRILSFRVLGGEHRLNNYRSVTSVNEFVVLEKDKKKRVYSVVLESYIVDIPQGNTEEDTRMFVDTVVKSNLQNLAVISTASPT | – | inhibition of HAB1 (0.5 μM) phosphatase activity by 1 μM PYL3 mutant, with ABA (5 μM) [6]: 70% |
| wild-type PYL3 (6x His-tagged) (receptor, Arabidopsis thaliana, UniProt Q9SSM7 1-209, looked up, PYL3 (pyrabactin resistance/Pyr1-like 3), Arabidopsis thaliana, subcloned from a cDNA library into pET-28a-tev; also called PYL3 WT; source: E. coli BL21(Rosseta), purified (Ni-charged resin, SEC Superdex-200)) MNLAPIHDPSSSSTTTTSSSTPYGLTKDEFSTLDSIIRTHHTFPRSPNTCTSLIAHRVDAPAHAIWRFVRDFANPNKYKHFIKSCTIRVNGNGIKEIKVGTIREVSVVSGLPASTSVEILEVLDEEKRILSFRVLGGEHRLNNYRSVTSVNEFVVLEKDKKKRVYSVVLESYIVDIPQGNTEEDTRMFVDTVVKSNLQNLAVISTASPT | – | stoichiometry N [7]: 2 |
| PYL3 F188A (receptor) MNLAPIHDPSSSSTTTTSSSTPYGLTKDEFSTLDSIIRTHHTFPRSPNTCTSLIAHRVDAPAHAIWRFVRDFANPNKYKHFIKSCTIRVNGNGIKEIKVGTIREVSVVSGLPASTSVEILEVLDEEKRILSFRVLGGEHRLNNYRSVTSVNEFVVLEKDKKKRVYSVVLESYIVDIPQGNTEEDTRMAVDTVVKSNLQNLAVISTASPT | – | inhibition of HAB1 (0.5 μM) phosphatase activity by 1 μM PYL3 mutant, with ABA (5 μM) [6]: 70% |
| PYL3 V108K V107L L111F (receptor) MNLAPIHDPSSSSTTTTSSSTPYGLTKDEFSTLDSIIRTHHTFPRSPNTCTSLIAHRVDAPAHAIWRFVRDFANPNKYKHFIKSCTIRVNGNGIKEIKVGTIREVSLKSGFPASTSVEILEVLDEEKRILSFRVLGGEHRLNNYRSVTSVNEFVVLEKDKKKRVYSVVLESYIVDIPQGNTEEDTRMFVDTVVKSNLQNLAVISTASPT | 80 | – |
| BD-PYL3 V108K V107F V192F (receptor) MNLAPIHDPSSSSTTTTSSSTPYGLTKDEFSTLDSIIRTHHTFPRSPNTCTSLIAHRVDAPAHAIWRFVRDFANPNKYKHFIKSCTIRVNGNGIKEIKVGTIREVSFKSGLPASTSVEILEVLDEEKRILSFRVLGGEHRLNNYRSVTSVNEFVVLEKDKKKRVYSVVLESYIVDIPQGNTEEDTRMFVDTFVKSNLQNLAVISTASPT | 90 | – |
| PYL3 V108K V107F (receptor) MNLAPIHDPSSSSTTTTSSSTPYGLTKDEFSTLDSIIRTHHTFPRSPNTCTSLIAHRVDAPAHAIWRFVRDFANPNKYKHFIKSCTIRVNGNGIKEIKVGTIREVSFKSGLPASTSVEILEVLDEEKRILSFRVLGGEHRLNNYRSVTSVNEFVVLEKDKKKRVYSVVLESYIVDIPQGNTEEDTRMFVDTVVKSNLQNLAVISTASPT | 65 | inhibition of HAB1 phosphatase activity by the PYL3 mutant, without ABA (as retold in the discussion, Fig. 3) [5]: 40% |
| BD-PYL3 V108K V107F V192F L111F (receptor) MNLAPIHDPSSSSTTTTSSSTPYGLTKDEFSTLDSIIRTHHTFPRSPNTCTSLIAHRVDAPAHAIWRFVRDFANPNKYKHFIKSCTIRVNGNGIKEIKVGTIREVSFKSGFPASTSVEILEVLDEEKRILSFRVLGGEHRLNNYRSVTSVNEFVVLEKDKKKRVYSVVLESYIVDIPQGNTEEDTRMFVDTFVKSNLQNLAVISTASPT | 98 | – |
| BD-PYL3 V108K V107L V192F (receptor) MNLAPIHDPSSSSTTTTSSSTPYGLTKDEFSTLDSIIRTHHTFPRSPNTCTSLIAHRVDAPAHAIWRFVRDFANPNKYKHFIKSCTIRVNGNGIKEIKVGTIREVSLKSGLPASTSVEILEVLDEEKRILSFRVLGGEHRLNNYRSVTSVNEFVVLEKDKKKRVYSVVLESYIVDIPQGNTEEDTRMFVDTFVKSNLQNLAVISTASPT | 87.5 | – |
| BD-PYL3 V108K V107L V192F L111F (receptor) MNLAPIHDPSSSSTTTTSSSTPYGLTKDEFSTLDSIIRTHHTFPRSPNTCTSLIAHRVDAPAHAIWRFVRDFANPNKYKHFIKSCTIRVNGNGIKEIKVGTIREVSLKSGFPASTSVEILEVLDEEKRILSFRVLGGEHRLNNYRSVTSVNEFVVLEKDKKKRVYSVVLESYIVDIPQGNTEEDTRMFVDTFVKSNLQNLAVISTASPT | 92.5 | – |
| PYL3 V108K V107L V192L L111F (receptor) MNLAPIHDPSSSSTTTTSSSTPYGLTKDEFSTLDSIIRTHHTFPRSPNTCTSLIAHRVDAPAHAIWRFVRDFANPNKYKHFIKSCTIRVNGNGIKEIKVGTIREVSLKSGFPASTSVEILEVLDEEKRILSFRVLGGEHRLNNYRSVTSVNEFVVLEKDKKKRVYSVVLESYIVDIPQGNTEEDTRMFVDTLVKSNLQNLAVISTASPT | 85 | – |
| PYL3 V108K V107L V192L (receptor) MNLAPIHDPSSSSTTTTSSSTPYGLTKDEFSTLDSIIRTHHTFPRSPNTCTSLIAHRVDAPAHAIWRFVRDFANPNKYKHFIKSCTIRVNGNGIKEIKVGTIREVSLKSGLPASTSVEILEVLDEEKRILSFRVLGGEHRLNNYRSVTSVNEFVVLEKDKKKRVYSVVLESYIVDIPQGNTEEDTRMFVDTLVKSNLQNLAVISTASPT | 50 | – |
| PYL3 V108A (6x His-tagged) (receptor, Arabidopsis thaliana, UniProt Q9SSM7 1-209, looked up, PYL3, Arabidopsis thaliana, in pET-28a-tev, site-directed mutant; Same limits as m1; source: E. coli BL21(Rosseta), purified (Ni-charged resin, SEC Superdex-200)) MNLAPIHDPSSSSTTTTSSSTPYGLTKDEFSTLDSIIRTHHTFPRSPNTCTSLIAHRVDAPAHAIWRFVRDFANPNKYKHFIKSCTIRVNGNGIKEIKVGTIREVSVASGLPASTSVEILEVLDEEKRILSFRVLGGEHRLNNYRSVTSVNEFVVLEKDKKKRVYSVVLESYIVDIPQGNTEEDTRMFVDTVVKSNLQNLAVISTASPT | – | stoichiometry N [7]: 2 |

Source: paper PMC8091583 (FEBS Open Bio, 2021)
